Test results: paper doi:10.1101/2021.02.17.431740 (bioRxiv, 2021)
Non-standard residues stand in square brackets, D forms with d. pY = N[C@@H](Cc1ccc(OP(=O)(O)O)cc1)C(=O)O

How the values were obtained:
[1] = molecular target: recombinant full-length human Grb2 (human, UniProt P62993-1 1-217); experiment: ITC
[2] = molecular target: recombinant full-length human CrkII (human, UniProt P46108-1 1-304); experiment: ITC
Sequence of recombinant full-length human CrkII (P46108 whole entry): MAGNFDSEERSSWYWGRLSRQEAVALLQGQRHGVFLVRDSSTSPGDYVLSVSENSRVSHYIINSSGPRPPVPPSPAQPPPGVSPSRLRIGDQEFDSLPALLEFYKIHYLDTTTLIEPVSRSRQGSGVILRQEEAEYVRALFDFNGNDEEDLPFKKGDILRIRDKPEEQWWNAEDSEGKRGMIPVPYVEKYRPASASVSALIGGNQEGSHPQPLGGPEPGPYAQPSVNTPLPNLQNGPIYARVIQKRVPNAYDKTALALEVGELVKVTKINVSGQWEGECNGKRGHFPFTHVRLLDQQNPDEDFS

Sequence of recombinant full-length human Grb2 (P62993 whole entry): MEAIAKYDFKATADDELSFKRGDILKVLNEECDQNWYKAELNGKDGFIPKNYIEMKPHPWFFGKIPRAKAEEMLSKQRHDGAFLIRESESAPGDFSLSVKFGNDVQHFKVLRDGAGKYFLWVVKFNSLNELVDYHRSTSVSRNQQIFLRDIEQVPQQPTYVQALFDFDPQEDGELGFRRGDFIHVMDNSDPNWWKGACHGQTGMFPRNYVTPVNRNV

In the case of Ac-T[pY]SNLGQ-NH2 [PEAK3 phosphorylated peptide Ac-T(pY)SNLGQ-NH2], the “stoichiometry N” value [1] is reported as 1, the Kd [2] is reported as 7.8 µM and the “stoichiometry N” value [2] is reported as 1.
